From US20180125892A1 (published 2018)

T1: human CD20 (human, UniProt P11836 1-297)
T1 construct: whole, on cells; cell-surface antigen; also called MS4A1
T1 sequence (looked up): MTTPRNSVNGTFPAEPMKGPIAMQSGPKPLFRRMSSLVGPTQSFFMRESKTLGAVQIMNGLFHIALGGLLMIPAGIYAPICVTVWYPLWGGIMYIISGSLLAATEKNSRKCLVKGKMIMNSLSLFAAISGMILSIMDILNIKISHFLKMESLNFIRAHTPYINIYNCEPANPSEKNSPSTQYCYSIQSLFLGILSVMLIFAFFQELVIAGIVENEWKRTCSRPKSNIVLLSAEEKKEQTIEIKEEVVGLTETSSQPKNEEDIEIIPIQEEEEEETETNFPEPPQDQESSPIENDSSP

B1: CD20-C2H3 CAR (other)
chain: QVQLVQSGAEVKKPGASVKVSCKASGYTFTNYWMHWVRQAPGQGLEWMGFITPTTGYPEYNQKFKDRVTMTADKSTSTAYMELSSLRSEDTAVYYCARRKVGKGVYYALDYWGQGTTVTVSSGGGGSGGGGSGGGGSGGGGSAIRMTQSPFSLSASVGDRVTITCRASGNIHNYLAWYQQKPAKAPKLFIYNTKTLADGVPSRFSGSGSGTDYTLTISSLQPEDFATYYCQHFWSSPWTFGGGTKVEIKTTTPAPRPPTPAPTIASQPLSLRPEACRPAAGGAVHTRGLDFACDIYIWAPLAGTCGVLLLSLVITLYCKRGRKKLLYIFKQPFMRPVQTTQEEDGCSCRFPEEEEGGCELRVKFSRSADAPAYQQGQNQLYNELNLGRREEYDVLDKRRGRDPEMGGKPRRKNPQEGLYNELQKDKMAEAYSEIGMKGERRRGKGHDGLYQGLSTATKDTYDALHMQALPPR
notes: CAR on cell surface; residues 1-21 = signal peptide
B2: CD20-C2H4 CAR (other)
chain: QVQLVQSGAEVKKPGSSVKVSCKASGYTFTNYWMHWVRQAPGQGLEWMGFITPTTGYPEYNQKFKDRVTITADKSTSTAYMELSSLRSEDTAVYYCARRKVGKGVYYALDYWGQGTTVTVSSGGGGSGGGGSGGGGSGGGGSAIRMTQSPFSLSASVGDRVTITCRASGNIHNYLAWYQQKPAKAPKLFIYNTKTLADGVPSRFSGSGSGTDYTLTISSLQPEDFATYYCQHFWSSPWTFGGGTKVEIKTTTPAPRPPTPAPTIASQPLSLRPEACRPAAGGAVHTRGLDFACDIYIWAPLAGTCGVLLLSLVITLYCKRGRKKLLYIFKQPFMRPVQTTQEEDGCSCRFPEEEEGGCELRVKFSRSADAPAYQQGQNQLYNELNLGRREEYDVLDKRRGRDPEMGGKPRRKNPQEGLYNELQKDKMAEAYSEIGMKGERRRGKGHDGLYQGLSTATKDTYDALHMQALPPR
notes: as for B1
B3: CD20-C3H1 CAR (other)
chain: QVQLVQSGAEVKKPGASVKVSCKASGYTFTNYNLHWVRQAPGQGLEWMGAIYPGNYDTSYNQKFKGRVTMTADKSTSTAYMELSSLRSEDTAVYYCARVDFGHSRYWYFDVWGQGTTVTVSSGGGGSGGGGSGGGGSGGGGSEIVLTQSPATLSLSPGERATLSCRATSSVSSMNWYQQKPGQAPRPLIHATSNLASGIPARFSGSGSGTDYTLTISSLEPEDAAVYYCQQWTFNPPTFGQGTKLEIKTTTPAPRPPTPAPTIASQPLSLRPEACRPAAGGAVHTRGLDFACDIYIWAPLAGTCGVLLLSLVITLYCKRGRKKLLYIFKQPFMRPVQTTQEEDGCSCRFPEEEEGGCELRVKFSRSADAPAYQQGQNQLYNELNLGRREEYDVLDKRRGRDPEMGGKPRRKNPQEGLYNELQKDKMAEAYSEIGMKGERRRGKGHDGLYQGLSTATKDTYDALHMQALPPR
notes: as for B1
B4: CD20-C3H2 CAR (other)
chain: QVQLVQSGAEVKKPGASVKVSCKASGYTFTNYNLHWVRQAPGQGLEWMGAIYPGNYDTSYNQKFKGRVTMTADKSTSTAYMELSSLRSEDTAVYYCARVDFGHSRYWYFDVWGQGTTVTVSSGGGGSGGGGSGGGGSGGGGSDIQLTQSPSFLSASVGDRVTITCRATSSVSSMNWYQQKPGKAPKPLIHATSNLASGVPSRFSGSGSGTEYTLTISSLQPEDFATYYCQQWTFNPPTFGQGTKLEIKTTTPAPRPPTPAPTIASQPLSLRPEACRPAAGGAVHTRGLDFACDIYIWAPLAGTCGVLLLSLVITLYCKRGRKKLLYIFKQPFMRPVQTTQEEDGCSCRFPEEEEGGCELRVKFSRSADAPAYQQGQNQLYNELNLGRREEYDVLDKRRGRDPEMGGKPRRKNPQEGLYNELQKDKMAEAYSEIGMKGERRRGKGHDGLYQGLSTATKDTYDALHMQALPPR
notes: as for B1

target: T1, human CD20; assay: worded conclusion from JNL NFAT-luciferase reporter co-culture with CD20-positive cell lines
Source text: To evaluate the functional ability of CD20 CARs to activate JNL cells, they were co-cultured with target cancer cells to read out their activation by quantifying luciferase expression. The humanized scFv-based CARs CD20-C2H1, -C2H2, -C2H3, -C2H4, -C3H1, -C3H2, -C3H3, -C3H4, -C5H1, -C5H2, -C5H3, -C5H4, -C8H1, -C8H2, -C8H3, and -C8H4, were compared to CD20-8aBBz and CD20-3, -3m, -3J, -3H5k3, and -3H5k1. The control CARs CD20-3 and CD20-8aBBz were used in all assays to compare assay variation and/or act as a control. The EGFRvIII CAR T cells (CAR 2174, Johnson et al., Science Translational Medicine 2015) were used as non-targeting control.
JNL CART cells were co-cultured with the Burkitt's lymphoma line Raji (RRID: CVCL_0511) and the diffuse large B cell lymphoma (DLBCL) lines Pfeiffer (RRID: CVCL_3326), HBL-1 (RRID: CVCL_4213) and TMD8 (RRID: CVCL_A442); K562 (RRID: CVCL_0004), a chronic myelogenous leukemia (CML) cell line, served as CD20-negative control. Co-cultures were set up in 384-well plates at effector-to-target (E:T) ratios of 4:1, 2:1, 1:1 and 0.5:1 and incubated for 24 h, after which the expression of luciferase by the activated JNL CAR T cells was quantified by britelite plus Reporter Gene Assay System (PerkinElmer, Waltham, Mass.). The amount of light emitted from each well (Luminescence) was a direct read-out of JNL activation by the respective CAR. […] Some of the humanized scFvs, which were fused to the transmembrane and signaling domains of the CARs, seem to have improved the efficacy of CARs to activate JNL T cells. These were CD20-C2H1, -C2H3, -C5H1, -C5H2, and -C8H3.

Binding result, binds:
B1, B2, B3, B4
